Results: patent US20260069707A1, “COMBINATION THERAPY WITH ANTIBODY-DRUG CONJUGATES AND HYALURONIDASES” (HALOZYME, INC., priority 2024, published 2026)
Values joined by “and” are separate entries in the source; they are usually repeats but may differ in a detail not shown here. Equal entries are not always repeated.

Assay: Enhertu analytes (TAB, TADC, free payload) in skin tissue homogenates of injection site
Type: in vivo, Yucatan miniature pig (Sus scrofa domestica)
Settings: SC; for Free Payload Result / TADC/TAB Ratio / Total Antibody Result: skin injection site homogenate, individual sites; for TADC/TAB ratio in tissue homogenates / Concentration of free payload in tissue homogenates of injection site / Concentration of total ADC (TADC) in tissue homogenates of injection site / Concentration of total antibody (TAB) in tissue homogenates of injection site / AUC(1-7), free payload in tissue homogenates of injection site / AUC(1-7), total ADC (TADC) in tissue homogenates of injection site / AUC(1-7), total antibody (TAB) in tissue homogenates of injection site / Cmax, free payload in tissue homogenates of injection site / Cmax, total ADC (TADC) in tissue homogenates of injection site / Cmax, total antibody (TAB) in tissue homogenates of injection site: skin
Experimental: Porcine serum was used as surrogate matrix to prepare calibration standards and quality controls for skin sample quantitation. Untreated blank porcine skin was provided for preparation of monitoring quality controls. The porcine skin was homogenized at an approximate ratio of 0.5 mL of buffer for every 100 mg of skin. […] The monitoring controls were analyzed during the method performance evaluation. The following were selected for monitoring in the assay (Table 83).
Porcine serum was used as surrogate matrix to prepare calibration standards and quality controls for the quantitation of skin samples. […] The porcine skin was homogenized at an approximate ratio of 0.5 mL of buffer for every 100 mg of skin. […] These were analyzed during the method performance evaluation.
This sample was divided vertically into two identical pieces. One skin sample was placed into a pre-weighed cryogenic tube and its weight was recorded then stored on dry ice prior to transfer to ≤−70° C. The other skin sample was processed for potential future histological assessment into OCT freezing media and frozen on dry ice.
Animals received two SC doses on their lower abdominal region.
Two cohorts were included in the follow-on study. […] Each animal had two full thickness skin biopsies taken post-mortem using a 12 mm punch. This sample was divided vertically into two identical pieces. One skin sample was placed into a pre-weighed cryogenic tube and its weight was recorded, then stored on dry ice prior to transfer to ≤−70° C. The other skin sample was processed into OCT molds for potential future histological assessment.
Tissue lysates were prepared based upon the weight of the sample at a ratio of 0.2 g/mL homogenization buffer (Tables 81 and 82). The total protein concentration of each homogenate was determined by BCA assay. The concentration of the total ADC (TADC), total antibody (TAB) and free payload (deruxtecan) in each sample was then normalized to the protein concentration and reported in μg analyte per mg total protein.
In this study, six animals were used. […] Two cohorts were included in this study. Cohort 1 was euthanized 24 hours after treatment, while Cohort 2 was euthanized 48 hours after exposure to the two test solutions.

[1] = 24 h post-injection, individual animal, listed as ADC
[2] = 48 h post-injection, individual animal, listed as ADC
[3] = 168 h post-injection, individual animal, listed as ADC
[4] = individual series, listed as ADC

Sacituzumab govitecan [Trodelvy]
ADC/Ab ratio, mean AUC1-7 (minipig skin): 87% | ADC/Ab ratio, mean Cmax (minipig skin): 88% | ADC/Payload ratio, mean AUC1-7 (minipig skin): 147791% | ADC/Payload ratio, mean Cmax (minipig skin): 128404% | Free Payload Result (24 h, listed as ADC): 124000 pg/mL and 67800 pg/mL and 138000 pg/mL | TADC/TAB Ratio (24 h, listed as ADC): 0.97 and 0.75 and 0.87 | Total Antibody Result (24 h, listed as ADC): 143 µg/mL and 97.8 µg/mL and 237 µg/mL | Free Payload Result (48 h, listed as ADC): 21700 pg/mL and 29500 pg/mL and 33800 pg/mL | TADC/TAB Ratio (48 h, listed as ADC): 0.77 and 0.86 and 0.96 | Total Antibody Result (48 h, listed as ADC): 50.2 µg/mL and 51.7 µg/mL and 58.1 µg/mL | Free Payload Result (168 h, listed as ADC): 3320 pg/mL and 2240 pg/mL and 3520 pg/mL | TADC/TAB Ratio (168 h, listed as ADC): 1.00 and 0.67 and 0.70 | Total Antibody Result (168 h, listed as ADC): 4.43 µg/mL and 4.86 µg/mL and 5.80 µg/mL | TADC/TAB ratio in tissue homogenates (24 h post injection, individual animal, listed as ADC): 0.87 and 0.97 and 0.75 | TADC/TAB ratio in tissue homogenates (24 h post injection, mean): 1.14 | Concentration of free payload in tissue homogenates of injection site [1]: 0.026 μg/mg protein and 0.020 μg/mg protein and 0.011 μg/mg protein | Concentration of total ADC (TADC) in tissue homogenates of injection site [1]: 38.48 μg/mg protein and 22.00 μg/mg protein and 12.15 μg/mg protein | Concentration of total antibody (TAB) in tissue homogenates of injection site [1]: 44.05 μg/mg protein and 22.63 μg/mg protein and 16.28 μg/mg protein | Concentration of free payload in tissue homogenates of injection site (24 h post-injection, mean): 0.02 μg/mg protein | Concentration of total ADC (TADC) in tissue homogenates of injection site (24 h post-injection, mean): 24.21 μg/mg protein | Concentration of total antibody (TAB) in tissue homogenates of injection site (24 h post-injection, mean): 27.65 μg/mg protein | TADC/TAB ratio in tissue homogenates (48 h post injection, individual animal, listed as ADC): 0.78 and 0.86 and 0.96 | TADC/TAB ratio in tissue homogenates (48 h post injection, mean): 1.15 | Concentration of free payload in tissue homogenates of injection site [2]: 0.003 μg/mg protein and 0.005 μg/mg protein (2×) | Concentration of total ADC (TADC) in tissue homogenates of injection site [2]: 5.97 μg/mg protein and 6.98 μg/mg protein and 7.80 μg/mg protein | Concentration of total antibody (TAB) in tissue homogenates of injection site [2]: 7.70 μg/mg protein and 8.07 μg/mg protein and 8.14 μg/mg protein | Concentration of free payload in tissue homogenates of injection site (48 h post-injection, mean): 0.00 μg/mg protein | Concentration of total ADC (TADC) in tissue homogenates of injection site (48 h post-injection, mean): 6.92 μg/mg protein | Concentration of total antibody (TAB) in tissue homogenates of injection site (48 h post-injection, mean): 7.97 μg/mg protein | TADC/TAB ratio in tissue homogenates (168 h post injection, individual animal, listed as ADC): 1.01 and 0.67 and 0.70 | TADC/TAB ratio in tissue homogenates (168 h post injection, mean): 1.27 | Concentration of free payload in tissue homogenates of injection site [3]: 0.001 μg/mg protein and 0.000 μg/mg protein (2×) | Concentration of total ADC (TADC) in tissue homogenates of injection site [3]: 0.69 μg/mg protein and 0.48 μg/mg protein and 0.55 μg/mg protein | Concentration of total antibody (TAB) in tissue homogenates of injection site [3]: 0.68 μg/mg protein and 0.72 μg/mg protein and 0.79 μg/mg protein | Concentration of free payload in tissue homogenates of injection site (168 h post-injection, mean): 0.00 μg/mg protein | Concentration of total ADC (TADC) in tissue homogenates of injection site (168 h post-injection, mean): 0.57 μg/mg protein | Concentration of total antibody (TAB) in tissue homogenates of injection site (168 h post-injection, mean): 0.73 μg/mg protein | AUC(1-7), free payload in tissue homogenates of injection site [4]: 0.024 ug*day/mL (2×) and 0.021 ug*day/mL | AUC(1-7), total ADC (TADC) in tissue homogenates of injection site [4]: 38.87 µg·days/mL and 33.14 µg·days/mL and 30.85 µg·days/mL | AUC(1-7), total antibody (TAB) in tissue homogenates of injection site [4]: 46.85 µg·days/mL and 37.33 µg·days/mL and 34.52 µg·days/mL | Cmax, free payload in tissue homogenates of injection site [4]: 26 ng/mL and 20 ng/mL and 11 ng/mL | Cmax, total ADC (TADC) in tissue homogenates of injection site [4]: 38480 ng/mL and 22000 ng/mL and 12150 ng/mL | Cmax, total antibody (TAB) in tissue homogenates of injection site [4]: 44050 ng/mL and 22630 ng/mL and 16280 ng/mL | AUC(1-7), free payload in tissue homogenates of injection site (mean): 0.02 µg·days/mL | AUC(1-7), total ADC (TADC) in tissue homogenates of injection site (mean): 34.29 µg·days/mL | AUC(1-7), total antibody (TAB) in tissue homogenates of injection site (mean): 39.57 µg·days/mL | Cmax, free payload in tissue homogenates of injection site (mean): 20 ng/mL | Cmax, total ADC (TADC) in tissue homogenates of injection site (mean): 24210 ng/mL | Cmax, total antibody (TAB) in tissue homogenates of injection site (mean): 27650 ng/mL
